Reference: PMC6261655, “Harnessing a previously unidentified capability of bacterial allosteric transcription factors for sensing diverse small molecules in vitro” (Science Advances, 2018)

Experiments:
HosA = HosA (Escherichia coli, UniProt Q7ABA6); assay: isothermal titration calorimetry; format: binding
HucR = biological target: T1, HucR (Deinococcus radiodurans, UniProt Q9RV71); assay: isothermal titration calorimetry; format: binding
T1 sequence (Q9RV71 1-181): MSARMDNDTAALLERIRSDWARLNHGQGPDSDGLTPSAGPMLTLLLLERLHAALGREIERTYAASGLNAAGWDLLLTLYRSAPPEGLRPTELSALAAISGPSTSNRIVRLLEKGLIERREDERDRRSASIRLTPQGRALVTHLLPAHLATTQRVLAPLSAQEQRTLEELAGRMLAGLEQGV

AvaR1 = biological target: T2, AvaR1 (Streptomyces avermitilis, UniProt Q82H41 1-234); assay: BLI; BLI: HBS-EP (10 mM Hepes, 15 mM NaCl, 3 mM EDTA, 0.005% Tween 20, 0.1% BSA, pH 7.4), temperature not stated; EMSA: 20 mM Tris-HCl pH 7.5, 2 mM DTT, 5 mM MgCl2; conditions: protein: recombinant, label: 5'-biotin on strand 1, blunt
T2 sequence: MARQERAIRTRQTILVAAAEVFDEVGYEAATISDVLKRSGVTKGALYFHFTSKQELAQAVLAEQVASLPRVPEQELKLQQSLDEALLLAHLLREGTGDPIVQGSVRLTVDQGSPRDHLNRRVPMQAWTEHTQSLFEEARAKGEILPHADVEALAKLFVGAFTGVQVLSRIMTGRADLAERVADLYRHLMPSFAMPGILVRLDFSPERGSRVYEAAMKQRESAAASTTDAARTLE

TetR = TetR (Escherichia coli, UniProt P04483 1-207); assay: as above; conditions: protein: recombinant, chain copies: 2, label: 5'-biotin on strand 1, blunt
Sequence of TetR (P04483 whole entry): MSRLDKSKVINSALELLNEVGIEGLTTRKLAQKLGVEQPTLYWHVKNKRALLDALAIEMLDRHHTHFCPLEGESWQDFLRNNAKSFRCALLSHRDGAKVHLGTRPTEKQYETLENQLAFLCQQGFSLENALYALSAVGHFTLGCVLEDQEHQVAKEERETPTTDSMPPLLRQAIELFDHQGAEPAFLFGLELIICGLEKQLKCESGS

Sequence of HosA (Q7ABA6 whole entry, looked up): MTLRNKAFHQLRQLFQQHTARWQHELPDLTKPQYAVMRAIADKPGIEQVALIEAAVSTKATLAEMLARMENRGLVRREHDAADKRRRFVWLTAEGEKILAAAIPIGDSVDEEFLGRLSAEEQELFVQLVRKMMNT

Molecule	Kd (AvaR1; nicked 1:2 1:3) [nM]	Kd (TetR; nicked 1:2 1:3) [nM]	also measured
O=C(O)c1ccc(O)cc1 [4-HBA]	–	–	Kd (HosA): 4.74 ± 0.25 µM
O=c1[nH]c(=O)c2[nH]c(=O)[nH]c2[nH]1 [UA]	–	–	Kd (HucR): 9.35 ± 0.99 µM
DNAAvaR1-0 (dsDNA) DNA 1: CGCAAGAGGGACTTGAAGACAAAACCGTCTAGTACGTATCTTTGACCTCCAGCTCTTCC DNA 2: GGAAGAGCTGGAGGTCAAAGATACGTACTAGACGGTTTTGTCTTCAAGTCCCTCTTGCG	–	–	Kd (AvaR1): 11.7 ± 0.028 nM
DNAAvaR1-10 (dsDNA, nick in bottom strand) DNA 1: CGCAAGAGGGACTTGAAGACAAAACCGTCTAGTACGTATCTTTGACCTCCAGCTCTTCC DNA 2: GGAAGAGCTGGAGGTCAAAGAT DNA 3: ACGTACTAGACGGTTTTGTCTTCAAGTCCCTCTTGCG	11 ± 0.026	–	–
DNAAvaR1-4 (dsDNA, nick in bottom strand) DNA 1: CGCAAGAGGGACTTGAAGACAAAACCGTCTAGTACGTATCTTTGACCTCCAGCTCTTCC DNA 2: GGAAGAGCTGGAGGTCAAAGATACGTACTAGACG DNA 3: GTTTTGTCTTCAAGTCCCTCTTGCG	16 ± 0.032	–	–
DNAAvaR1-7 (dsDNA, nick in bottom strand) DNA 1: CGCAAGAGGGACTTGAAGACAAAACCGTCTAGTACGTATCTTTGACCTCCAGCTCTTCC DNA 2: GGAAGAGCTGGAGGTCAAAGATACGTAC DNA 3: TAGACGGTTTTGTCTTCAAGTCCCTCTTGCG	10.8 ± 0.03	–	–
DNAAvaR1-5 (dsDNA, nick in bottom strand) DNA 1: CGCAAGAGGGACTTGAAGACAAAACCGTCTAGTACGTATCTTTGACCTCCAGCTCTTCC DNA 2: GGAAGAGCTGGAGGTCAAAGATACGTACTAGA DNA 3: CGGTTTTGTCTTCAAGTCCCTCTTGCG	14 ± 0.027	–	–
DNAAvaR1-2 (dsDNA, nick in bottom strand) DNA 1: CGCAAGAGGGACTTGAAGACAAAACCGTCTAGTACGTATCTTTGACCTCCAGCTCTTCC DNA 2: GGAAGAGCTGGAGGTCAAAGATACGTACTAGACGGTTT DNA 3: TGTCTTCAAGTCCCTCTTGCG	15.1 ± 0.034	–	–
DNAAvaR1-11 (dsDNA, nick in bottom strand) DNA 1: CGCAAGAGGGACTTGAAGACAAAACCGTCTAGTACGTATCTTTGACCTCCAGCTCTTCC DNA 2: GGAAGAGCTGGAGGTCAAAG DNA 3: ATACGTACTAGACGGTTTTGTCTTCAAGTCCCTCTTGCG	13 ± 0.027	–	–
DNAAvaR1-12 (dsDNA, nick in bottom strand) DNA 1: CGCAAGAGGGACTTGAAGACAAAACCGTCTAGTACGTATCTTTGACCTCCAGCTCTTCC DNA 2: GGAAGAGCTGGAGGTCAA DNA 3: AGATACGTACTAGACGGTTTTGTCTTCAAGTCCCTCTTGCG	8.33 ± 0.015	–	–
DNAAvaR1-3 (dsDNA, nick in bottom strand) DNA 1: CGCAAGAGGGACTTGAAGACAAAACCGTCTAGTACGTATCTTTGACCTCCAGCTCTTCC DNA 2: GGAAGAGCTGGAGGTCAAAGATACGTACTAGACGGT DNA 3: TTTGTCTTCAAGTCCCTCTTGCG	17 ± 0.052	–	–
DNAAvaR1-1 (dsDNA, nick in bottom strand) DNA 1: CGCAAGAGGGACTTGAAGACAAAACCGTCTAGTACGTATCTTTGACCTCCAGCTCTTCC DNA 2: GGAAGAGCTGGAGGTCAAAGATACGTACTAGACGGTTTTG DNA 3: TCTTCAAGTCCCTCTTGCG	18.3 ± 0.052	–	–
DNAAvaR1-8 (dsDNA, nick in bottom strand) DNA 1: CGCAAGAGGGACTTGAAGACAAAACCGTCTAGTACGTATCTTTGACCTCCAGCTCTTCC DNA 2: GGAAGAGCTGGAGGTCAAAGATACGT DNA 3: ACTAGACGGTTTTGTCTTCAAGTCCCTCTTGCG	14.1 ± 0.025	–	–
DNAAvaR1-6 (dsDNA, nick in bottom strand) DNA 1: CGCAAGAGGGACTTGAAGACAAAACCGTCTAGTACGTATCTTTGACCTCCAGCTCTTCC DNA 2: GGAAGAGCTGGAGGTCAAAGATACGTACTA DNA 3: GACGGTTTTGTCTTCAAGTCCCTCTTGCG	12.6 ± 0.021	–	–
DNAAvaR1-9 (dsDNA, nick in bottom strand) DNA 1: CGCAAGAGGGACTTGAAGACAAAACCGTCTAGTACGTATCTTTGACCTCCAGCTCTTCC DNA 2: GGAAGAGCTGGAGGTCAAAGATAC DNA 3: GTACTAGACGGTTTTGTCTTCAAGTCCCTCTTGCG	22.2 ± 0.245	–	–
DNATetR-0 (dsDNA) DNA 1: CCTCCGATTTTCAGATTGACACTCTATCATTGATAGGGATATATTCCAACTCTATCAAT DNA 2: ATTGATAGAGTTGGAATATATCCCTATCAATGATAGAGTGTCAATCTGAAAATCGGAGG	–	–	Kd (TetR): 1.08 ± 0.06 nM
DNATetR-2 (dsDNA, nick in bottom strand) DNA 1: CCTCCGATTTTCAGATTGACACTCTATCATTGATAGGGATATATTCCAACTCTATCAAT DNA 2: ATTGATAGAGTTGGAATATATCCCTATCAATGATAGAG DNA 3: TGTCAATCTGAAAATCGGAGG	–	1.78 ± 0.07	–
DNATetR-5 (dsDNA, nick in bottom strand) DNA 1: CCTCCGATTTTCAGATTGACACTCTATCATTGATAGGGATATATTCCAACTCTATCAAT DNA 2: ATTGATAGAGTTGGAATATATCCCTATCAATG DNA 3: ATAGAGTGTCAATCTGAAAATCGGAGG	–	1.91 ± 0.03	–
DNATetR-1 (dsDNA, nick in bottom strand) DNA 1: CCTCCGATTTTCAGATTGACACTCTATCATTGATAGGGATATATTCCAACTCTATCAAT DNA 2: ATTGATAGAGTTGGAATATATCCCTATCAATGATAGAGTG DNA 3: TCAATCTGAAAATCGGAGG	–	1.3 ± 0.04	–
DNATetR-9 (dsDNA, nick in bottom strand) DNA 1: CCTCCGATTTTCAGATTGACACTCTATCATTGATAGGGATATATTCCAACTCTATCAAT DNA 2: ATTGATAGAGTTGGAATATATCCCT DNA 3: ATCAATGATAGAGTGTCAATCTGAAAATCGGAGG	–	0.67 ± 0.03	–
DNATetR-12 (dsDNA, nick in bottom strand) DNA 1: CCTCCGATTTTCAGATTGACACTCTATCATTGATAGGGATATATTCCAACTCTATCAAT DNA 2: ATTGATAGAGTTGGAATAT DNA 3: ATCCCTATCAATGATAGAGTGTCAATCTGAAAATCGGAGG	–	1.1 ± 0.05	–
DNATetR-4 (dsDNA, nick in bottom strand) DNA 1: CCTCCGATTTTCAGATTGACACTCTATCATTGATAGGGATATATTCCAACTCTATCAAT DNA 2: ATTGATAGAGTTGGAATATATCCCTATCAATGAT DNA 3: AGAGTGTCAATCTGAAAATCGGAGG	–	1.89 ± 0.07	–
DNATetR-8 (dsDNA, nick in bottom strand) DNA 1: CCTCCGATTTTCAGATTGACACTCTATCATTGATAGGGATATATTCCAACTCTATCAAT DNA 2: ATTGATAGAGTTGGAATATATCCCTAT DNA 3: CAATGATAGAGTGTCAATCTGAAAATCGGAGG	–	1.52 ± 0.044	–
DNATetR-7 (dsDNA, nick in bottom strand) DNA 1: CCTCCGATTTTCAGATTGACACTCTATCATTGATAGGGATATATTCCAACTCTATCAAT DNA 2: ATTGATAGAGTTGGAATATATCCCTATCA DNA 3: ATGATAGAGTGTCAATCTGAAAATCGGAGG	–	1.85 ± 0.06	–
DNATetR-3 (dsDNA, nick in bottom strand) DNA 1: CCTCCGATTTTCAGATTGACACTCTATCATTGATAGGGATATATTCCAACTCTATCAAT DNA 2: ATTGATAGAGTTGGAATATATCCCTATCAATGATAG DNA 3: AGTGTCAATCTGAAAATCGGAGG	–	1.72 ± 0.11	–
DNATetR-11 (dsDNA, nick in bottom strand) DNA 1: CCTCCGATTTTCAGATTGACACTCTATCATTGATAGGGATATATTCCAACTCTATCAAT DNA 2: ATTGATAGAGTTGGAATATAT DNA 3: CCCTATCAATGATAGAGTGTCAATCTGAAAATCGGAGG	–	1.58 ± 0.04	–
DNATetR-10 (dsDNA, nick in bottom strand) DNA 1: CCTCCGATTTTCAGATTGACACTCTATCATTGATAGGGATATATTCCAACTCTATCAAT DNA 2: ATTGATAGAGTTGGAATATATCC DNA 3: CTATCAATGATAGAGTGTCAATCTGAAAATCGGAGG	–	1.22 ± 0.03	–
DNATetR-6 (dsDNA, nick in bottom strand) DNA 1: CCTCCGATTTTCAGATTGACACTCTATCATTGATAGGGATATATTCCAACTCTATCAAT DNA 2: ATTGATAGAGTTGGAATATATCCCTATCAA DNA 3: TGATAGAGTGTCAATCTGAAAATCGGAGG	–	2 ± 0.59	–
